In article PMC11330527, “Structure and dimerization properties of the plant-specific copper chaperone CCH” (Scientific Reports, 2024):

Assays:
[1] = biological target: the molecule itself; assay: MST; only one copy preloaded with copper (CCH: labeled copy copper-loaded, unlabeled copper-free; CCHΔ: unlabeled copy copper-loaded, labeled copper-free); labeled chaperone 20 nM, unlabeled 0.4 to 6.25 µM; 300 mM NaCl, 50 mM HEPES, 0.05% Tween-20, pH 7.5; room temperature; one-site binding model; apparent KD; dimer to monomers
[2] = biological target: the molecule itself; assay: MST; both copies in the apo (copper-free) state; Alexa Fluor 488-labeled chaperone 20 nM, unlabeled chaperone 4.6 to 400 nM; 300 mM NaCl, 50 mM HEPES, 0.05% Tween-20, pH 7.5, no DTT; room temperature; one-site binding model; apparent KD; dimer to monomers

B1: copper chaperone CCH (full-length CCH) from Arabidopsis (natural protein, Arabidopsis thaliana, UniProt O82089 1-120, looked up)
chain: MAQTVVLKVGMSCQGCVGAVNRVLGKMEGVESFDIDIKEQKVTVKGNVEPEAVFQTVSKTGKKTSYWPVEAEAEPKAEADPKVETVTETKTEAETKTEAKVDAKADVEPKAAEAETKPSQ
modifications: Alexa Fluor 488 NHS ester on amines (only the labeled copy in MST)
notes: Used copper-free (apo) or preloaded with Cu(I) from Cu(I)-(BCA)2; A TEV site follows the His-tag; Vector pETEV16b-CCH; also called apo-CCH; Cu(I)-CCH; source: E. coli, purified (IMAC, TEV digestion, SEC); not shown: 10xHis, N-terminal, cleaved
**Q.** For B1, which Kd [1] is on record?
**A.** The Kd was 78 ± 39 nM.

**Q.** And the Kd [2]?
**A.** Its Kd is 18 ± 6 nM.

B2: CCHΔ, truncation mutant of CCH lacking the C-terminal extension (domain or fragment, Arabidopsis thaliana, UniProt O82089 1-70, looked up)
chain: MAQTVVLKVGMSCQGCVGAVNRVLGKMEGVESFDIDIKEQKVTVKGNVEPEAVFQTVSKTGKKTSYWPVE
modifications: also: Alexa Fluor 488 NHS ester on amines (labeled copy only)
notes: Used copper-free (apo) or preloaded with Cu(I) from Cu(I)-(BCA)2; A TEV site follows the His-tag; source: E. coli, purified (IMAC, TEV digestion, SEC); not shown: 10xHis, N-terminal, cleaved
**Q.** B2 was tested. Which Kd [1] did it give?
**A.** The Kd was 169 ± 51 nM.

**Q.** And the Kd [2]?
**A.** Its Kd is 57 ± 9 nM.
